Data on 4 molecules can be found in paper PMC10330844 (Traffic (Copenhagen, Denmark), 2023).

Bounds are passed on as bounds.

For experiment [1], the target named is T1, Syntaxin-5 (STX5), endogenous, as precipitated by the anti-STX5 antibody (human (endogenous in HEK293T), UniProt Q13190 1-355).
T1 sequence (looked up): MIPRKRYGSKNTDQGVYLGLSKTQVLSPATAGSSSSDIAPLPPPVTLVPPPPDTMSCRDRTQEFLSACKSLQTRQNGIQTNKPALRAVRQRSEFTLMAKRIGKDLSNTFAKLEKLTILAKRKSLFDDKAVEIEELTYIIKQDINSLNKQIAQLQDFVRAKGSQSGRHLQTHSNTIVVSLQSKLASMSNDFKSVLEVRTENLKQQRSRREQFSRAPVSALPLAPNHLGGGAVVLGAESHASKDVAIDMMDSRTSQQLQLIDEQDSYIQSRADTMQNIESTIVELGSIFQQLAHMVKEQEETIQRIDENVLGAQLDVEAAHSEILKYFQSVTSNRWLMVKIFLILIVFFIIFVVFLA
Description: co-IP.

In experiment [2] the target is T2, SNAP29-His6 (SNAP29 in pET23a) (UniProt O95721 1-258).
T2 sequence (looked up): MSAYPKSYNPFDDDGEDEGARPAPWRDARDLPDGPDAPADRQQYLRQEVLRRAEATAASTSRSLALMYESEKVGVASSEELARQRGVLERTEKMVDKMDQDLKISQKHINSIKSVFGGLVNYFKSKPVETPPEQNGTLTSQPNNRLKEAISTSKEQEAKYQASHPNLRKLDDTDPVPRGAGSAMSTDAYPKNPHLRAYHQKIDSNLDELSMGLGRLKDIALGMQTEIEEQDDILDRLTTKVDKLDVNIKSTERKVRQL
Description: pull-down.

B1: VAMP7, endogenous (natural protein, human (endogenous in HEK293T), UniProt P51809 1-220, looked up)
chain: MAILFAVVARGTTILAKHAWCGGNFLEVTEQILAKIPSENNKLTYSHGNYLFHYICQDRIVYLCITDDDFERSRAFNFLNEIKKRFQTTYGSRAQTALPYAMNSEFSSVLAAQLKHHSENKGLDKVMETQAQVDELKGIMVRNIDLVAQRGERLELLIDKTENLVDSSVTFKTTSRNLARAMCMKNLKLTIIIIIVSIVFIYIIVSPLCGGFTWPSCVKK
B1: the “percent of the cellular protein present in STX5 complexes (GS28 KO cells)” value (“percent of the cellular protein present” for short) in experiment [1] was under 25%.

B2: SNAP29, endogenous (natural protein, human (endogenous in HEK293T), UniProt O95721 1-258, looked up)
chain: MSAYPKSYNPFDDDGEDEGARPAPWRDARDLPDGPDAPADRQQYLRQEVLRRAEATAASTSRSLALMYESEKVGVASSEELARQRGVLERTEKMVDKMDQDLKISQKHINSIKSVFGGLVNYFKSKPVETPPEQNGTLTSQPNNRLKEAISTSKEQEAKYQASHPNLRKLDDTDPVPRGAGSAMSTDAYPKNPHLRAYHQKIDSNLDELSMGLGRLKDIALGMQTEIEEQDDILDRLTTKVDKLDVNIKSTERKVRQL
Consider B2, for which the “percent of the cellular protein present” value in experiment [1] was about 35%.

B3: GST-STX5 (rSTX5 (55-333) in pGEX-KG) (domain or fragment, UniProt Q08851 55-333, looked up)
chain: MSCRDRTQEFLSACKSLQSRQNGIQTNKPALHATRQCSEFTLMARRIGKDLSNTFAKLEKLTILAKRKSLFDDKAVEIEELTYIIKQDINSLNKQIAQLQDFVRAKGSQSGRHLQTHSNTIVVSLQSKLASMSNDFKSVLEVRTENLKQQRNRREQFSRAPVSALPLAPNNLGGGPIVLGGESRASRDVAIDMMDPRTSQQLQLIDEQDSYIQSRADTMQNIESTIVELGSIFQQLAHMVKEQEETIQRIDENVLGAQLDVEAAHSEILKYFQSVTSNR
B3: the “stoichiometry N” value in experiment [2] was found to be 1.

B4: VTI1B, endogenous (natural protein, human (endogenous in HEK293T), UniProt Q9UEU0 1-232, looked up)
chain: MASSAASSEHFEKLHEIFRGLHEDLQGVPERLLGTAGTEEKKKLIRDFDEKQQEANETLAEMEEELRYAPLSFRNPMMSKLRNYRKDLAKLHREVRSTPLTATPGGRGDMKYGIYAVENEHMNRLQSQRAMLLQGTESLNRATQSIERSHRIATETDQIGSEIIEELGEQRDQLERTKSRLVNTSENLSKSRKILRSMSRKVTTNKLLLSIIILLELAILGGLVYYKFFRSH
On to B4, for which the “percent of the cellular protein present” value in experiment [1] is under 25%.
